Patent US20260008815A1, “CYCLIC PEPTIDE OR SALT THEREOF, AND USES THEREOF” (FUJIFILM Corporation, priority 2023, published 2026)
Numbered stars: 1 amine (or outer) side, 2 acyl side, 3 side chain; on linkers, the order of the positions; unused ones are H or OH. Bridge positions count the residues as written; N and C are the ends. Ends that are not written are not given here. acetyl = acetyl (haloacetyl before ring closure) on the side-chain amine, O=C(C[*:1])[*:2]; COCH2 = acetyl group that carries the bridge

molecular target: T1, Recombinant Human FGFR2 alpha (IIIc) Fc Chimera Protein (Homo sapiens, UniProt P21802); experiment: ELISA binding affinity of enzymatically synthesized peptide to FGFR; details: ELISA luminescence signal at 10 nmol/L peptide, SEQ ID NO: 47 at 10 nmol/L standardized to 1; enzyme synthesis product
T1 construct: Fc (chimera); purchased R&D systems 712-FR-050
T1 sequence (P21802 with tags, fused parts or gaps limits assumed): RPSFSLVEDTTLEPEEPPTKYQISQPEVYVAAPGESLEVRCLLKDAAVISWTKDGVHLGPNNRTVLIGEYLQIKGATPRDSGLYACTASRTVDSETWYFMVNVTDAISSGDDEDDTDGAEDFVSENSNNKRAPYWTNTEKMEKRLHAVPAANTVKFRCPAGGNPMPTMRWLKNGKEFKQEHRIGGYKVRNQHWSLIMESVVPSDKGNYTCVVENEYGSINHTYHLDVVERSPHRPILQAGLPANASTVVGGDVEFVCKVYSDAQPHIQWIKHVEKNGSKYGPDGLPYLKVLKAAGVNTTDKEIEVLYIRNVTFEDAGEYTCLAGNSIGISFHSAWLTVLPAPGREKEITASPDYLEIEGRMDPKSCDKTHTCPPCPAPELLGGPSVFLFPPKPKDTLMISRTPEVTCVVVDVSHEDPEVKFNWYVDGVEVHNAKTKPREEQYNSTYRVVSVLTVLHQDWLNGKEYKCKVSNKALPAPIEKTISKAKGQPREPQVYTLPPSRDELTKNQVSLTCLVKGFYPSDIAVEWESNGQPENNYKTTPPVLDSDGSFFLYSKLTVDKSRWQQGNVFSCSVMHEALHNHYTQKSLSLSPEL
Summary of the method: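 FGFR2 alpha (IIIc) Fc chimera (5 ng/well) was immobilized, and Myc-tagged peptide was bound 3 h at room temperature, then detected with anti-Myc antibody (2 h) and chemiluminescent substrate. Signal was corrected against FGFR-free wells. Score A–D was the luminescence at 10 nmol/L peptide, normalized to cyclic peptide SEQ ID NO: 47.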

Which “Evaluation result of binding affinity to FGFR” value (“Evaluation result” for short) does the source give for “46 (SCIQQNYFWQYVFERYRYKQ; Description of Artificial Sequence: Cyclic peptide) [compound 46]” here?
Its value is “B (0.5 or more and less than 0.7)”.

With “157 (YCYENYLDPEQYQYFIYFK(COCH2)Y; thioether 2-19 (inferred)) [compound 157]” as the substance, how does the “Evaluation result” value read?
Its value is “A (0.7 or more)”.

With “340 (YCEENYLKPEQYQYFIYFK(COCH2)Y; thioether 2-19) [compound 340]” as the substance, how does the “Evaluation result” value read?
The value was “C (0.1 or more and less than 0.5)”.

With “194 (YCEENHLDPEQYQYFIYFK(COCH2)Y; thioether 2-19 (inferred)) [compound 194]” as the substance, how does the “Evaluation result” value read?
The value was “A (0.7 or more)”.

Which “Evaluation result” value does the source give for “66 (KCPQNFINPVQWRYFQAYK(COCH2)N; thioether 2-19 (inferred)) [compound 66]” here?
Its value is “A (0.7 or more)”.

Which “Evaluation result” value does the source give for “203 (YCEENYTDPEQYQYFIYFK(COCH2)Y; thioether 2-19 (inferred)) [compound 203]” here?
The value was “A (0.7 or more)”.

Which “Evaluation result” value does the source give for “53 (ACPQNFINPVQWRYFQHYKN; not fully specified; Description of Artificial Sequence: Cyclic peptide) [compound 53]” here?
The value was “A (0.7 or more)”.

“221 (YCEENYLDGEQYQYFIYFK(COCH2)Y; thioether 2-19 (inferred)) [compound 221]” was tested. Which “Evaluation result” value did it give?
Its value is “A (0.7 or more)”.

“57 (KCPQNAINPVQWRYFQHYK(COCH2)N; thioether 2-19 (inferred)) [compound 57]” was tested. Which “Evaluation result” value did it give?
Its value is “B (0.5 or more and less than 0.7)”.

Which “Evaluation result” value does the source give for “421 (VCLDEQQALFHQYYRITRRK(COCH2)V; thioether 2-20 via acetyl) [compound 421]” here?
The value was “C (0.1 or more and less than 0.5)”.

Which “Evaluation result” value does the source give for “68 (KCQNFINPVQWRYFQHYK(COCH2)N; thioether 2-18 (inferred)) [compound 68]” here?
Its value is “A (0.7 or more)”.

Which “Evaluation result” value does the source give for “141 (FCEENYLDPEQYQYFIYFKY; Description of Artificial Sequence: Cyclic peptide) [compound 141]” here?
The value was “A (0.7 or more)”.

“223 (YCEENYLDIEQYQYFIYFK(COCH2)Y; thioether 2-19 (inferred)) [compound 223]” was tested. Which “Evaluation result” value did it give?
The value was “A (0.7 or more)”.

How did the “Evaluation result” value turn out when “275 (YCEENYLDPEQYQYLIYFK(COCH2)Y; thioether 2-19) [compound 275]” was run?
The value was “A (0.7 or more)”.

For “45 (TCPQNFRDELQFTYFTQYKY; Description of Artificial Sequence: Cyclic peptide) [compound 45]”, which “Evaluation result” value is on record?
Its value is “A (0.7 or more)”.

“163 (YCDENYLDPEQYQYFIYFK(COCH2)Y; thioether 2-19 (inferred)) [compound 163]” was tested. Which “Evaluation result” value did it give?
Its value is “A (0.7 or more)”.

How did the “Evaluation result” value turn out when “355 (YCEENYLDPEQMQYFIYFK(COCH2)Y; thioether 2-19) [compound 355]” was run?
The value was “C (0.1 or more and less than 0.5)”.

For “423 (WCFTEGIQSTVQLTYSYLYK(COCH2)L; thioether 2-20 via acetyl) [compound 423]”, which “Evaluation result” value is on record?
Its value is “C (0.1 or more and less than 0.5)”.

For “407 (LCVQGNYQNPTQWYYFQLYK(COCH2)W; thioether 2-20 (inferred)) [compound 407]”, which “Evaluation result” value is on record?
The value was “B (0.5 or more and less than 0.7)”.

“245 (YCEENYLDPQQYQYFIYFK(COCH2)Y; thioether 2-19 (inferred)) [compound 245]” was tested. Which “Evaluation result” value did it give?
The value was “A (0.7 or more)”.

For “352 (YCEENYLMPEQYQYFIYFK(COCH2)Y; thioether 2-19) [compound 352]”, which “Evaluation result” value is on record?
The value was “A (0.7 or more)”.

With “86 (HCPQNFINPVQWRYFQHYK(COCH2)N; thioether 2-19 (inferred)) [compound 86]” as the substance, how does the “Evaluation result” value read?
Its value is “A (0.7 or more)”.

For “304 (YCEENYLDPEQYQYFIRFK(COCH2)Y; thioether 2-19 (inferred)) [compound 304]”, which “Evaluation result” value is on record?
Its value is “A (0.7 or more)”.
